These results are taken from patent US20240082437A1 (Hoffmann-La Roche, published 2024).

In assay [1] the target is T1, Carcinoembryonic antigen (CEA) (human, UniProt P06731 35-685).
T1 construct: whole, on cells; also called Carcinoembryonic antigen-related cell adhesion molecule 5; CEACAM5
T1 sequence (looked up): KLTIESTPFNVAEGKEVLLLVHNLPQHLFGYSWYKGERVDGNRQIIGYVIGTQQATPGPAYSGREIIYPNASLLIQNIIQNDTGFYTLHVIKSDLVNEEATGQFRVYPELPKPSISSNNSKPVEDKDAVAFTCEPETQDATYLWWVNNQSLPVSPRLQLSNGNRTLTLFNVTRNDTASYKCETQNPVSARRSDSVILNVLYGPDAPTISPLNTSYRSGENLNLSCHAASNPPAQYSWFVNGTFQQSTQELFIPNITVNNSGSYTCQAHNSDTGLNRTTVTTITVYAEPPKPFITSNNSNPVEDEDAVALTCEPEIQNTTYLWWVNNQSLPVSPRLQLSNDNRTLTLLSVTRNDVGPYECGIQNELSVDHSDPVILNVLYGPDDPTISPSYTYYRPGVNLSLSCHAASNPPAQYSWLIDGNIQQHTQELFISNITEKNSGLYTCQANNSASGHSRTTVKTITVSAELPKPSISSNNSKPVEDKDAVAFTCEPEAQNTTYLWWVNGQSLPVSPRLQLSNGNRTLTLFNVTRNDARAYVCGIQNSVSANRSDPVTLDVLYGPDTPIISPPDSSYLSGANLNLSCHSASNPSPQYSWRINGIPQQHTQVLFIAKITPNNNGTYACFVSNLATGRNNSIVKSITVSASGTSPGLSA
Description: flow cytometry on MKN45 cells (CEA), hemibody mixed 1:1 with human ISO control, detected with anti-human IgG(H+L) (FITC in the legend box, A488 in the title). A general note: Flow cytometry measures light scatter and fluorescence of single cells or particles in a stream.
Description: To assess the functionality of the split antibodies or hemibodies, MKN-45 cells were detached from the culture vessel using accutase at 37° C. for 10 minutes. Subsequently, the cells were washed twice in PBS, and seeded into 96 well v-bottom plates to a final density of 4×10⁶ cells/well.
Subsequently, the cells were incubated for 1 h on ice and washed twice in PBS. The cell pellet was resuspended and 40 μl/well of detection reagent was added, either <human IgG(H+L)>FITC, (10 μg/ml) or Pb_Dotam_FITC 1:100=>(10 μg/ml) in PBS/5% FCS. After 60 min incubation on ice, the cells were washed twice in PBS and resuspended in 200 μl PBS/5% FCS for measurement of FITC fluorescence using a FACS canto.

Assay [2] concerns the target T1, Carcinoembryonic antigen (CEA). Kind of assay: FACS on MKN-45 cells, detection with anti-huIgG(H+L)-Alexa488. The procedure: MKN-45 cells were detached from the culture bottle using Trypsin and were counted using a Casy cell counter. After pelleting at 4° C., 300 g the cells were resuspended in FACS Buffer (2.5% FCS in PBS), adjusted to 2.0E+06 cells/mL dispensed to 96-well PP V-bottom-Platte (25 μL/well=5.0E+04Zellen/well).
Both antibodies were added to the cells either separated followed by buffer or combined and incubated at 4° C. for 1 h. The cells were then washed twice in FACS buffer. After washing, the cells were resuspended in 50 μL FACS-buffer containing secondary antibody (<huIgG(H+L)>-Alexa488, c=10 μg/mL) and incubated 1 h at 4° C. The cells were then washed twice in FACS buffer and resuspended in 70 μl/well FACS buffer for measurement using a FACS Canto (BD, Pharmingen).

B1: P1AD8749 (antibody, human IgG1, kappa, L234A L235A)
heavy 1: QVQLVQSGAEVKKPGASVKVSCKASGYTFTEFGMNWVRQAPGQGLEWMGWINTKTGEATYVEEFKGRVTFTTDTSTSTAYMELRSLRSDDTAVYYCARWDFAYYVEAMDYWGQGTTVTVSSASTKGPSVFPLAPSSKSTSGGTAALGCLVKDYFPEPVTVSWNSGALTSGVHTFPAVLQSSGLYSLSSVVTVPSSSLGTQTYICNVNHKPSNTKVDKKVEPKSCDKTHTCPPCPAPEAAGGPSVFLFPPKPKDTLMISRTPEVTCVVVDVSHEDPEVKFNWYVDGVEVHNAKTKPREEQYNSTYRVVSVLTVLHQDWLNGKEYKCKVSNKALGAPIEKTISKAKGQPREPQVCTLPPSRDELTKNQVSLSCAVKGFYPSDIAVEWESNGQPENNYKTTPPVLDSDGSFFLVSKLTVDKSRWQQGNVFSCSVMHEALHNHYTQKSLSLSPG
heavy 2: not shown
light: DIQMTQSPSSLSASVGDRVTITCKASAAVGTYVAWYQQKPGKAPKLLIYSASYRKRGVPSRFSGSGSGTDFTLTISSLQPEDFATYYCHQYYTYPLFTFGQGTKLEIKRTVAAPSVFIFPPSDEQLKSGTASVVCLLNNFYPREAKVQWKVDNALQSGNSQESVTEQDSKDSTYSLSSTLTLSKADYEKHKVYACEVTHQGLSSPVTKSFNRGEC
notes: Split antibody (hemibody) with CH1A1A anti-CEA Fabs; also called CEA-split-DOTAM-VH; PRIT Split Antibody with DOTAM-VH
The term EC50 (read off the curve) denotes the concentration that produces a half-maximal response. Read a high EC50 (read off the curve) as lower potency in that assay. For the molecule B1, the “EC50 (read off the curve)” value in assay [1] was roughly 1 µg/mL.

B2: P1AF0713 (antibody)
heavy 1: B1 heavy 1
heavy 2: not shown
light: B1 light
notes: Split antibody with CH1A1A anti-CEA Fabs; Both heavy chains carry VH-CH1; also called CEA specific SPLIT antibody (DOTA-VH-AST); P6_B
The term EC50 denotes the concentration giving half of the maximal effect. B2 returned an EC50 in assay [2] of 2.3 µg/mL.

B3: P1AF0712 (antibody)
heavy 1: not shown
heavy 2: QVQLVQSGAEVKKPGASVKVSCKASGYTFTEFGMNWVRQAPGQGLEWMGWINTKTGEATYVEEFKGRVTFTTDTSTSTAYMELRSLRSDDTAVYYCARWDFAYYVEAMDYWGQGTTVTVSSASTKGPSVFPLAPSSKSTSGGTAALGCLVKDYFPEPVTVSWNSGALTSGVHTFPAVLQSSGLYSLSSVVTVPSSSLGTQTYICNVNHKPSNTKVDKKVEPKSCDKTHTCPPCPAPEAAGGPSVFLFPPKPKDTLMISRTPEVTCVVVDVSHEDPEVKFNWYVDGVEVHNAKTKPREEQYNSTYRVVSVLTVLHQDWLNGKEYKCKVSNKALGAPIEKTISKAKGQPREPQVCTLPPSRDELTKNQVSLSCAVKGFYPSDIAVEWESNGQPENNYKTTPPVLDSDGSFFLVSKLTVDKSRWQQGNVFSCSVMHEALHNHYTQKSLSLSPGGGGGSGGGGSGGGGSGGGGSQAVVIQESALTTPPGETVTLTCGSSTGAVTASNYANWVQEKPDHLFTGLIGGHNNRPPGVPARFSGSLIGDKAALTIAGTQTEDEAIYFCALWYSDHWVIGGGTKLTVL
light: B1 light
notes: Split antibody with CH1A1A anti-CEA Fabs; Both heavy chains carry VH-CH1; also called CEA specific SPLIT antibody (DOTA-VL); P6_A
In assay [2], B3 returned an EC50 of 2.7 µg/mL.
